Laboratory results from US20250011869A1, “TLR3 INHIBITORS FOR USE IN THE TREATMENT OF DISEASES ASSOCIATED WITH CARDIOVASCULAR CALCIFICATION” (priority 2021, published 2025).

Key:
TLR3-RUNX2 pathway = assay: Immunoblot of human dermal fibroblasts for the TLR3-RUNX2 pathway; type: cell-based; conditions: wild type and empty vector control cells; 5 μg/ml, 6 h
Description: (§1) Human dermal fibroblasts WT and Tlr3^−/− were kindly provided by the Jean-Laurent Casanova group and cultivated in DMEM with 4.5 g/L glucose (Lonza, Basel, Switzerland), 10% FCS (Sigma, St. Louis, MO), penicillin, streptomycin and L-Glutamine. Human dermal fibroblasts CTR cells were provided by the Villunger group and cultivated in DMEM with 4.5 g/L glucose (Lonza, Basel, Switzerland), 10% FCS (Sigma, St. Louis, MO), penicillin, streptomycin and L-Glutamine.
(§2) All cells were cultivated under standard conditions (37° C., supplied with 5% CO2). Passaging of the cells was performed at 70-90% confluency, and cells were only used until passage 7 as described previously^6. Polyinosinic: polycytidylic acid (Poly(I:C); Invivogen, San Diego, CA) was used to stimulate cells at a concentration of either 20 μg/mL or 5 μg/ml, depending on the assay. For blockade of TLR3, the commercially available dsRNA/TLR3 inhibitor ((R)-2-(3-Chloro-6-fluorobenzo [b] thiophene-2-carboxamido)-3-phenyl-propanoic acid) was used (Merck, Darmstadt, Germany) at a concentration of 1 μg/ml as described previously^1,7. LY294002 (Invivogen, San Diego, CA), a PI3K inhibitor, was used at a concentration of 10 μM. For blockade of IFNAR1, a specific blocking antibody (Invitrogen, Carlsbad, CA) was used at a concentration of 4 μg/ml. A stable HEK (human embryonic kidney) reporter cell line (TLR3/ISRE LUCPorter; Imgenex, USA) was purchased for luminometer assay experiments. Cells were cultivated according to the manufacturer's protocol in DMEM with 4.5 g/L glucose (Lonza, Switzerland), 10% FCS (Sigma, St. Louis, MO), penicillin/streptomycin, and 4 mM L-glutamine and […] puromycin (Gibco, USA) as selection agent. Reporter experiments were performed as described previously^8. For the protein expression SF21 cells were purchased at ThermoFisher (#11497013) and cultivated in Gibco™ Sf-900™ SFM supplemented with penicillin, streptomycin and L-Glutamine. In vitro stretch was applied using a Flexcell bioreactor (Flexcell International Corporation, Burlington, NC) applying 15% cyclic strain as described previously^9.
Protein from tissue or cell lysates was extracted using a Radioimmunoprecipitation Assay Lysis Puffer (150 mM NaCl, 1% NP-40, 0.5% Sodium Deoxycholate, 0.1% SDS and 50 mM Tris (pH 8,0)). For the extraction of nuclear or cytosolic proteins the NE-PER™ Nuclear and Cytoplasmic Extraction Reagents Kit (ThermoScientific, #78835) was used.
Protein was thereafter separated on SDS-polyacrylamide gels of different percentages and transferred to nitrocellulose membranes as described previously^18. After blocking with either 5% BSA in TBS 0.1% Tween, 5% milk in TBS 0.1% Tween or StartingBlock™ (TBS) Blocking buffer (ThermoScientific, #37542) membranes were incubated with primary antibodies listed in Table 2.

TLR3 and IFN-β = assay: RT-PCR of human dermal fibroblasts (wild type, empty vector control, Tlr3−/− CRISPR); type: cell-based; conditions: 5 μg/ml, 6 h
Description: as §1, §2
RT-PCR was performed as described previously^17. Total RNA was extracted from homogenized tissue or cell lysates using the Total RNA Miniprep Kit (New England BioLabs, Frankfurt, Germany) according to the manufacturer's instructions. We performed the PCR reaction in a final volume of 12.5 μL containing 2.5 μL of cDNA, 6.25 μL of Master Mix, 1 μL of fluorogenic hybridization probe, 10 μM of primer and 2.75 μL of distilled water. […] The result for the relative gene expression was calculated by the 2-DDCt method. Mean Ct values were calculated from double determinations and samples were considered negative if the Ct values exceeded 4017. […]

[1] = target: T1, human TLR3 ectodomain (huTLR3-ECD) (Homo sapiens, UniProt O15455); assay: In vitro binding by size exclusion chromatography and immunoblot; conditions: chondroitinase ABC digested BGN incubated with TLR3 ECD
T1 construct: The human TLR3-ECD (27-700) was modified with an N-terminal gb67 leader and a C-terminal 6× poly histidine tag; gb67 (gp67) secretion leader (N); 6xHis (C); made in house; host or cells: Sf21 insect cells (baculovirus, pFastBac1, Bac-to-Bac)

TLR3 = TLR3 (Homo sapiens, UniProt O15455); assay: HEK293 hTLR3 reporter cell assay (TLR3/ISRE LUCPorter, luminometer); type: cell-based; conditions: putative ligands at increasing concentrations, 24 h (biglycan 5, 10, 20 μg/ml)
Description: as §2, with “For the protein expression SF21 cells were purchased at ThermoFisher (#11497013) and cultivated in Gibco™ Sf-900™ SFM supplemented with penicillin, streptomycin and L-Glutamine. In vitro stretch was applied using a Flexcell bioreactor (Flexcell International Corporation, Burlington, NC) applying 15% cyclic strain as described previously^9.” left out

B1: BGN: proteoglycan biglycan (BGN), a structural protein of the extracellular matrix (ECM) (protein)
chain: DEEASGAETTSGIPDLDSLPPTYSAMCPFGCHCHLRVVQCSDLGLKAVPKEISPDTTLLDLQNNDISELRKDDFKGLQHLYALVLVNNKISKIHEKAFSPLRKLQKLYISKNHLVEIPPNLPSSLVELRIHDNRIRKVPKGVFSGLRNMNCIEMGGNPLENSGFEPGAFDGLKLNYLRISEAKLTGIPKDLPETLNELHLDHNKIQAIELEDLLRYSKLYRLGLGHNQIRMIENGSLSFLPTLRELHLDNNKLSRVPAGLPDLKLLQVVYLHTNNITKVGVNDFCPVGFGVKRAYYNGISLFNNPVPYWEVQPATFRCVTDRLAIQFGNYKK
In the case of B1, the IFNAR1 level (TLR3-RUNX2 pathway) is reported as “upregulation of IFNAR1”, the “levels of osteoblastic transcription factor RUNX2” value (TLR3-RUNX2 pathway) is reported as “increased levels” and the “phosphorylation of IRF3” value (TLR3-RUNX2 pathway) is reported as “phosphorylation of IRF3”. For the same molecule, the “transcription of TLR3 and IFN-β” value (TLR3 and IFN-β; Tlr3−/− fibroblasts) was “no response”, the “transcription of TLR3 and IFN-β” value (TLR3 and IFN-β; wild type and empty vector control fibroblasts) was “induced transcription of TLR3 and IFN-β” and the “binding to huTLR3-ECD by size-exclusion chromatography followed by immunoblotting” value [1] was “co-elution”. The “binding to huTLR3-ECD by size-exclusion chromatography followed by immunoblotting” value ([1]; listed as huBGN) was “weak binding interaction” and the “activation of TLR3 reporter cells” value (TLR3) was “activated TLR3 reporter cells in a dose-dependent fashion”.
